Source: patent US9962447

Assays:
Experiment in all cases: cell-based or functional assay
[1] = biological target: human NOP recombinant receptor (N/OFQ peptide receptor) (human) (UniProt P41146)
[2] = biological target: human MOP receptor (human) (UniProt P35372)
[3] = biological target: human KOP receptor (human) (UniProt P41145)
[4] = biological target: human DOP receptor (human) (UniProt P41143)
[5] = biological target: native mouse NOP receptor (mouse vas deferens) (mouse) (UniProt P35377)
Sequence of native mouse NOP receptor (mouse vas deferens) (mouse) (P35377 whole entry): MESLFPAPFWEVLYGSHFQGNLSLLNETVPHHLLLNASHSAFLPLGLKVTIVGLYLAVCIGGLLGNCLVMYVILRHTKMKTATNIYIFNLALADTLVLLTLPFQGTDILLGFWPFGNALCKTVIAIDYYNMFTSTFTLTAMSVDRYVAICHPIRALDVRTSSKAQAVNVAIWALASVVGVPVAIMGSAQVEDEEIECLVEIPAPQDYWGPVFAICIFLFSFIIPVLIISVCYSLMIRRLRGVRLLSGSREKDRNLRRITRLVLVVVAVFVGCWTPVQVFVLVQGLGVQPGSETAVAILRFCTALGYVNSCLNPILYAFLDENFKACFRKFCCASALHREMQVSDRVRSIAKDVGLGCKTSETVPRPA

Sequence of human MOP receptor (human) (P35372 whole entry): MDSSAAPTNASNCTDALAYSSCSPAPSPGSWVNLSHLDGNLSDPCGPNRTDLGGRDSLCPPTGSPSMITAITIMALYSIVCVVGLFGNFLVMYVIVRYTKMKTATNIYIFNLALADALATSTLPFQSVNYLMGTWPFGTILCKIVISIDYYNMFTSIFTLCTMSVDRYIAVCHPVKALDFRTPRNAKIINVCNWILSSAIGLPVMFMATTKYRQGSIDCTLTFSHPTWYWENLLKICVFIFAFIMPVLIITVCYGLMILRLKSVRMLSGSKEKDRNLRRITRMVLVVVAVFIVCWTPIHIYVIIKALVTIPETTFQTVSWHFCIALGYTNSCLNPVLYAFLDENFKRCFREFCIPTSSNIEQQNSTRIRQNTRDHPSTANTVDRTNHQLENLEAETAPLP
Sequence of human KOP receptor (human) (P41145 whole entry): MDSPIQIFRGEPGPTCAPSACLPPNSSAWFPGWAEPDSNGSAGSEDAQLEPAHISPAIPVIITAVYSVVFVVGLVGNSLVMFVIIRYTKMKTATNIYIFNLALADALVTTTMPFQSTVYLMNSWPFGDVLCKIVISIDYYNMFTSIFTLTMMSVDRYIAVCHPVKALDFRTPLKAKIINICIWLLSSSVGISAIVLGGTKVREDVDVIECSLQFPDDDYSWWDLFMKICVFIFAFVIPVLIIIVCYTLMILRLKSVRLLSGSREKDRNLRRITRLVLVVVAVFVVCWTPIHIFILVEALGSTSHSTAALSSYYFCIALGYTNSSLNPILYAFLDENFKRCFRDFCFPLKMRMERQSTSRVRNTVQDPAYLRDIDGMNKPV
Sequence of human DOP receptor (human) (P41143 whole entry): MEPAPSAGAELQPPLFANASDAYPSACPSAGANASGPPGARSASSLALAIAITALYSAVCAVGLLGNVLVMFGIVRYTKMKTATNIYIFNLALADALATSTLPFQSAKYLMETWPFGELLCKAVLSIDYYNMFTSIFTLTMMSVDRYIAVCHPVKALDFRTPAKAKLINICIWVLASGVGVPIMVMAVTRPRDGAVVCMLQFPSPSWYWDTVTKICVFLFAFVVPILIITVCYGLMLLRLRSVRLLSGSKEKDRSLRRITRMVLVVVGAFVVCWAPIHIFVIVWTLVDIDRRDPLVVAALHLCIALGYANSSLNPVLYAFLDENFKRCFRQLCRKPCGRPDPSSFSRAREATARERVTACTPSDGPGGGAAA
Sequence of human NOP recombinant receptor (N/OFQ peptide receptor) (human) (P41146 whole entry): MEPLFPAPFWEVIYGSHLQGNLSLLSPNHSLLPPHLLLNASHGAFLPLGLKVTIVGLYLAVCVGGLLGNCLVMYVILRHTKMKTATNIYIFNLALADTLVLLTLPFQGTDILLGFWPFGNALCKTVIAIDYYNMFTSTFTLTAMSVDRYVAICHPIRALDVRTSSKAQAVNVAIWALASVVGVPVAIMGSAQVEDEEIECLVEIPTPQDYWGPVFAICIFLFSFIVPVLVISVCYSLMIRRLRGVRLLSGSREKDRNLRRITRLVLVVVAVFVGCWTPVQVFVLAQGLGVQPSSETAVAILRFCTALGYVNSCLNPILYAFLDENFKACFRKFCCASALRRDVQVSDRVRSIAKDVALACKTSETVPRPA

calcium mobilization, potency [1] [nM]	calcium mobilization, potency [2] [nM]	calcium mobilization, potency [3] [nM]	calcium mobilization, maximal effects [4] [%]	calcium mobilization, pEC50 (pEC50 (-log10 M)) [4]	electrically stimulated mouse vas deferens, Emax (% inhibition of control twitch) [5]	electrically stimulated mouse vas deferens, pEC50 (pEC50 (-log10 M)) [5]	mouse vas deferens from NOP(+/+) mice, Emax [5] [%]	mouse vas deferens from NOP(+/+) mice, pEC50 (pEC50 (-log10 M)) [5]	calcium mobilization, potency [4] [nM]	calcium mobilization, maximal effects [2] [%]	Substance	calcium mobilization, pEC50 (pEC50 (-log10 M)) [2]
> 1000	> 1000	> 1000	86	9.57	–	–	–	–	–	–	DPDPE (peptide)	–
–	> 1000	> 1000	–	–	93	7.78	91	7.92	> 1000	–	PWT2-N/OFQ (supramolecular aggregate of the PWT2 maleimido core with [Cys18]N/OFQ-NH2) (from UniProt Q13519 20-176)	–
> 1000	–	> 1000	–	–	–	–	–	–	> 1000	135	dermorphin (peptide)	–
–	> 1000	> 1000	–	–	88	7.37	92	7.68	> 1000	–	nociceptin/orphanin FQ (N/OFQ) peptide (from UniProt Q13519 20-176)	–

Substance	calcium mobilization, potency [1] [nM]	calcium mobilization, potency [2] [nM]	calcium mobilization, potency [3] [nM]	calcium mobilization, maximal effects [4] [%]	calcium mobilization, pEC50 (pEC50 (-log10 M)) [4]	electrically stimulated mouse vas deferens, Emax (% inhibition of control twitch) [5]	electrically stimulated mouse vas deferens, pEC50 (pEC50 (-log10 M)) [5]	mouse vas deferens from NOP(+/+) mice, Emax [5] [%]	mouse vas deferens from NOP(+/+) mice, pEC50 (pEC50 (-log10 M)) [5]	calcium mobilization, potency [4] [nM]	calcium mobilization, maximal effects [2] [%]	calcium mobilization, pEC50 (pEC50 (-log10 M)) [2]
dynorphin A (from UniProt P01213 207-223) (peptide)	> 1000	–	–	–	–	–	–	–	–	–	–	6.67
